Tests used:
[1] = target: T1, AlABD-B (Aquatica leii, UniProt A0AAN7SB49 90-481); experiment: EMSA; poly(dI-dC); no significant complex detected; LightShift EMSA kit; 2.0 ug protein (stored in PBS, 10% glycerol), 0.2 pmol probe, 2 ug/uL poly(dI-dC), 60 min at room temperature, native 6% PAGE; binding buffer salt and pH not stated; conditions: protein: recombinant; tags: His (pET28a, Ni-NTA); blunt
[2] = target: T1, AlABD-B; experiment: EMSA; poly(dI-dC); signal significantly reduced by unlabeled WT probe; LightShift EMSA kit; 2.0 ug protein (stored in PBS, 10% glycerol), 0.2 pmol probe, 2 ug/uL poly(dI-dC), 60 min at room temperature, native 6% PAGE; binding buffer salt and pH not stated; conditions: protein: recombinant; tags: His (pET28a, Ni-NTA); label: biotin; blunt

T1 sequence (A0AAN7SB49 entry or part of it): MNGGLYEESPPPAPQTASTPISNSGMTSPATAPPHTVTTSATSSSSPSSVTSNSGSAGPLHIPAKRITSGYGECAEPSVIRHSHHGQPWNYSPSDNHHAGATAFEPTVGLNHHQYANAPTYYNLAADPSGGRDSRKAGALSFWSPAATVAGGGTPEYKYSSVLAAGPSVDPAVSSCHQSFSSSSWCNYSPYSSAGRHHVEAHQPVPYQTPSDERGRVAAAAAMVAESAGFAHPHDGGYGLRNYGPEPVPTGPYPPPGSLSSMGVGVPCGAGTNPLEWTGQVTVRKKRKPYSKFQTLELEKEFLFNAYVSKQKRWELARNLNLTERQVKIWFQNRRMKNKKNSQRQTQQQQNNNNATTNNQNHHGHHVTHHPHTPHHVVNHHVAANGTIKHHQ

B1: ABD-B binding site mutation probe (dsDNA)
DNA 1: ATACATTAAAGTATCCGGCGGGAACCGGCAATCTGCCGGGATATATAAAAAACA
DNA 2: TGTTTTTTATATATCCCGGCAGATTGCCGGTTCCCGCCGGATACTTTAATGTAT
B1: no binding [1].

B2: biotin-WT AlLuc1 promoter probe (dsDNA)
DNA 1: ATACATTAAAGTATCTAATAAAAATTAATGGTTCATTAAGATATATAAAAAACA
DNA 2: TGTTTTTTATATATCTTAATGAACCATTAATTTTTATTAGATACTTTAATGTAT
B2: binds [2].
